According to US20240026407A1, “MODIFICATION OF SAPONINS” (GLAXOSMITHKLINE BIOLOGICALS SA, priority 2020, published 2024):

B1: 845 (protein, listed as Kitasatosporia setae)
chain: MTQLSMPSSLTTPASGTDHRVLDLERKARLVSGGDTFRTSPEPALGLFPIVCSDGPVGVRGERWDEADTALLLPCATALAASWDEELVARMGGLLAAEARRKGVHVVLAPTLNLHRSPLGGRNFECFSEDPLLTARIGAAYIGGVQALGVAATAKHYVANDSETERLTVDARVDERTLREVYLAPFEAAVRAGVWAVMSAYNRVNGTSMVEHPLLAEPLKGEWGFDGLVVSDWGSVREADGPGAAACDLSMPGPNPAWGPALAAAVRAGRVPAAALDDKVERLLRLAGRVGAFDPPPAGRAPVPADPATRGALRAAAVAGTVLLHNPDRLLPLDEPALRRVAVLGPNAATARVQGGGSASVFPAAPVSPLNGLRAALDPSVEVTHAPGVRTELRPTPLAAADCVLPDGSGPGVLVRYLAADGSPLHTEARATGRVLEPSADVDLTAVRTIEVASRFTAPSAGRWRLGVVGLGALRLEADGAVLLDEYVAPLSDDPTYLHVAPSFRQVELELAAGQGVDLLARRTVEPEHGRVLVLAADRPAAELEREFAHAVELAAAADVAVVVVGTTDEHESEGFDRAGLRLPGRQDELVEAVAAVNPRTVVVVNTGSPVLLPWRERVGAVLTCWFPGQEGGGALAEVLLGRAEPGGRLPTTWPDAEADCPVYATAPSGGRLAYAEGPHLGHRGWLRAGRTPAYWFGHGLGWGEWCYLALGEPSAPAADGSRTVRVALRNDGPRRSRETVQLYLSRPDSELDRPVRWLAGFGAVEAGPGERVEVELRLPQRALQHWSVEDRAWRTEPGTFVLHVGPHSGELPLAAALPVGA
B2: 871 (protein, listed as Dactylellina haptotyla)
chain: MLDESVSREIEETLAQLTLEEKISLLAGKDMWRTVPIPDKQVPSIKTSDGPSGARGDSFTGGTKAAFFPSGISMGATFNPELAYEVGQFIGDEVKSKSASVLLAPTACCHRSPLGGRNFESYSEDPLLSGKMASAYIRGVQSKNVAATMKHYAANEQETWRLHVDETIDETTLREIYLKPFEIAMREGRPWAVMSAYNIINGEHCDSNSLTLKQVLRGEWKYEGLVMSDWFGCNSMVDSLLAGLDLEMPGPAKVRPVKELVAKAEKDDSIREAVDKAARRVLTLIAKVGKWKDMTPEAPEISREDPETGKLIRRAGGEGVVLLKNDGALPLQPASLKSIAFVGPNAKATVAGGGGSANLNPNYLTQPYETFVKAIKEIDASIEVPYAQGCIIDRWIPPVNAESGLCRSGGPGSEPGWLVEWFRGHDLKGEVVSSSVFKNSDVFLWDGRPEGLNPAEGYSIRFSGQVSVPEDGNYNIALSTITAGNLYVDGELLIDNWDFKERGNLMMNIGSEEVVKTLELKKGQWYNIEVRNASIWPKDSPRDPPMEEIGALGVRLGLAAVYDNNSLIAQATDSVKNSDAVVIVVGLNNEWESESYDRTQTKLPRNQDELIEEIAKVNKNVIVVNQSGAPIDMPWVENPNVKGIIQAWYAGQEAGNVIADVLLGKQNPSGKLPLTFPVKLEDNPSYNYFPGKDKKVEYTEKLMVGYRYYDTDNVKPRFPFGYGLSYSSFKVGKPVLSTTELSEDGSFTATVEVSNTSAVAGAEVIQLYVQRKTSGTSSIKRPIKELKGFKKIHLQPGETKTAEVTVDDKSLGIWSPEAGKWVVEAGDYEVLVGTSSVYDELAAAGTVVAKSAWSWI
B3: 841 (protein, listed as Mycetocola reblochoni)
chain: MTTPRPSLEQKAALTSGRDTWHSESLDDIPVMMMTDGPHGLRQQLQDGGDALGIGNSVPATCFPPAAGLASSWNTGLVERVGVALGTEARATEIRILLGPGLNIKRSPLGGRNFEYFSEDPRVSGELAAAMVTGIQSMGVAATPKHFAVNNQETDRLRVSAEVDERALREIYLSAFERVVTVASPWAFMSSYNRINGVYASENHWLLTELLREEWGFDGLVMSDWGAVNDRVAALAAGLELEMPPTGTDQLIVDAVRTGELDEAVLDRAVDRLRLLAERTERPPLTGYDADAHDDLARSAAQESIVLLKNADVLPLDAAATPRIAVVGEFARTPRYQGGGSSRVVPTRMHSALDALTDALGLGADGLSFSPGFALDGDTPAGAADEAVAAVEAADVAVLFLGLPDGTESEGFDRTTIALPAEQLHLLERAAATTTPVVVVLSNGAVVDVASWEHHADAILEAWLLGQAGGLAIADVLLGTVSPSGKLAETIPLDLADTPSHLSFPGRDGVVVYGESVYVGYRHYDTRRLPVAYPFGFGLSYTRFEYSELEVTATGRNSWTVAATVTNVGERRGAETVQLYIGVEQDRPDRPVHELRGFAKVDLEPGESARVELPVTERDLSHWSVRDGAWRVEKGRYTVELAAHSRDVRLATTITSEGDGVVTRLNGMSTVGEWLDHPYGREQIQWFIDGVDTRFGATAPEMIVMLKQLPIAKLTTFGIGLDSARIERMCAEAAADGERHGEQP
B4: 890 (protein, listed as Arthrobacter ulcerisalmonis)
chain: MNLPLSPAVTAPAAGSPDAEALIHNLADSLSLAEQVQLLTGADVWSTHTLPSIGLSRIVLSDGPAGVRGEDFDERHDSVSLPSSSALSASWSAELAHRYGQVLGQEARRKGVHAVLGPTINLHRSPLGGRHFECMSEDPRLTATMAAGYVAGVQSMGVGATPKHYLANESETDRFTVDSVVAERPLRELYLAAFEDAITESRAWLVMSSYNSINGTTASENDLLETPLSTEWGFDGVVVSDWTGVRSVEAANAHQDLEMPGPVGHWSAKLLAAVESGQVSREAIVEKVVRILRLAARVGSLDGVSPAVAELPAALDSAAVAREVAIRGAVLIRNSAGLLPLDASALTSVALSGHNADEARTQGGGSATVMPKQNISPLMGLREALPATTSLSYTRGAKVAEGLQQFARTALHNPVSNVPGARVTFLDASGTEIFAEDRLASSLIWFGVGIPEGTAAITISTDWTAEQAGVHHLGLGTVGQARLSFNGTEVFNGELLDTTNVLGAALFDPPSTVHQIETTAGETVRIEAHYTLPPEQFIPLTAILLGEEAVVTDPQAEIDDAVAAASSADVAIVVVGTNSSIESEGFDRSNLDLPGHQNELVRAVAAANPRTIVVVNSGSPVLMPWLEDVGAVLLGWFGGQEFGRAIADILLGVAEPGGRLPTSWPAALADVPVLSTTPVEGKLEYAEGIHVGYRAWLQQQAAGGPAPAVPFGFGLGYTSFEFSAPHAPQQVQAGNDVIVHVPVRNTGSRAGREVVQVYLERPDSTVERPVRWLAGFAGTHLAPAGTESVEVRIPARAFEHYDGGWQVERGAFRILVGKHVEDDFQVLAIDVR
B5: 832 (protein, listed as Arthrobotrys oligospora)
chain: MDATTLKEIEETLAQLTLEEKISLLAGKDFWRTVPLPEKQIPSIKVSDGPSGARGDTFSGGQKAAFFPSGILMGATFNPELAYETGALLGEEVKAKSASVLLAPTACCHRSPLGGRNFESYSEDPLLSGKMASGYIRGVQSRGIAATMKHFVANEQETWRLYVDETIDETTLREIYLKPFEIAMREGQPWAIMTAYNIINGVHCDSHPLALKQVLRGEWNYEGLVMSDWFGCNSMVESLLAGLDLEMPGPARKRPIKEFVEAAEKDESIRKAIDDSARRILTLIAKVGKWKDMTPEAPEYSRNDPETGKLIRRAGGEGTVLLKNEGKTLPLQPGSLKKVAFIGPNAKATVAGGGGSASLEPNYLTQPYETFVNAIKEINGDIEVPWVQGCIIDRWVPNIDVEGGFCRVGGPDSEAGLFLEWFRGYEATGEPVATTVFKTSNAFLWDSRPTSISPSEEFSVKFSGQISVPEDGKYNISLSTITASKLYLNGELLIDNWDFKERGNLMMNVGSEEVVKTIELKKGEWYPILVHNSSIWPKDSPRDPPMEEIGALGIRLGVAPVYDNAVLIAEAADAVKDADAVVIVVGLNNEWESESYDRSDTKLPNNQDDLIEEIAKVNQNVIVVNQSGAPVDMPWAENSNVKAIVQAWYAGQEAGHVIADVLLGKQNPSGKLPLTFPIKVQDNPSYFYFPGRDQKVEYTEKLMVGYRYYDTENVETRFPFGYGLSYSTFSIGEPSLSTAELTEGQTFTANIDVSNTSNVAGAEVVQLYVKRPASTSSIKRPVKELKGFKKVHLGTGETATANITVDDKSLGIWSTEAGKWVVEAGDYEVLIGTSSVQDELKPAGKITVKAAWSWI
B6: 830 (protein)
chain: MGTAHDLEQLIAGLTLEEKIALLAGDSLWTVPGIPRLGIRPLKVSDGPAGVRGSRIVPAAAFPAPVLLGATWDPELVERVGQALAEEAETKGAQVVLAPTINLQRTALGGRNFECFSEDPHLTARLAVAYVRGLQSRGIGACIKHYVANDQEFERHTVSVEVDERTLREVYLFPFAVAVAEADPWCVMAAYNRVGGIYCSEHPWLLTTILREELGYQGVVMSDWFATHSTIEALQAGLDLEMPGPPQWRGDKLREAVERGEVALEVIERSARRVLMLYQRAGRFAPGPETSEERAVDRPEHRALIREVGASGMVLLRNEGILPLDLSTVKRVAVIGPHVRRPAVGGGGSAFVRSHPVVTPLEALRESAPQCEFLVEEGAAIFKLIPPLEGEALGSEGAELAFFANPELAGAPVATIRVRTTDLIWLGEVAPGVDASAFSARLRVTMRPEESGRYVLGATAVGQVRVHLDGTLVLDNWTAPQPGRTYFGFGSAEVRAAVDLEAERAYEIVVEYRKFQPGLPLAGFRFGVVHELSDEERIARSVRAAQQADLALLFVGLSPEWESEGFDRESFDLPGAQNALVTAVADANPNTVVVLTAGSPVNLPWLERVGALLLAWYAGEEVGHAVVDVLTGVREPAGRLPFTYPQRLEDTPAFLNYPGEFGRLRYCEGLFIGYRWYDARQIEPLFPFGFGLGYTRFAYRDLVLDRESLGGEEKLTVTCTVENVGERAGSEVVQLYLAFPPGTVRRPLKELRGFRRVHLMPQGSASVSFTVSPRDLAYFDEAAREWVAPPGEYEIMIGAHARDIRLRGRFLLREELRWDAGGRFRDV
modifications: bacterium

experiment: Experiment 5-3: screening of additional glucosidases for deglycosylation with QS-18 in treated bark extract (80%) at pH 6 and 35 deg C; type: biochemical, Quillaja saponaria; details: TBE 80% (QS-21 approx. 4 g/L), pH 6, 35 deg C; UV HPLC
Description: Experiment 5-1 was repeated, replacing CBE with Treated Bark Extract (TBE) at pH 6. TBE was prepared from CBE by PVPP treatment and concentration, to provide TBE with a QS-21 concentration of approximately 4 g/L. TBE was adjusted to pH 6 by dropwise addition of 2M NaOH with stirring.

| Molecule | Experiment 5-3 % conv [%] |
| --- | --- |
| B1 | <0.5 |
| B2 | <0.5 |
| B3 | <0.5 |
| B4 | <0.5 |
| B5 | <0.5 |
| B6 | <0.5 |

experiment: Experiment 5-2: screening of additional glucosidases for deglycosylation with QS-18 in crude bark extract (80%) at pH 6 and 35 deg C; type: biochemical, Quillaja saponaria; details: CBE 80%, pH 6, 35 deg C, 18 hours; UV HPLC
Summary of the method: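 Clarified glucosidase lysate (prepared at pH 6) was incubated with pH 6-adjusted crude bark extract at 35 deg C with shaking for 18 hours. Reactions were quenched with MeCN containing 2% AcOH and hexanophenone, then analysed by UV HPLC.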

| Molecule | Experiment 5-2 % conv [%] |
| --- | --- |
| B1 | <0.5 |
| B2 | <0.5 |
| B3 | <0.5 |
| B4 | <0.5 |
| B5 | <0.5 |
| B6 | <0.5 |

experiment: Experiment 5-1: screening of additional glucosidases for deglycosylation with purified QS-18 (0.04 mg/ml) at pH 7.5 and 30 deg C; type: biochemical, Quillaja saponaria; details: pH 7.5, 30 degrees C, 18 hours, LCMS/MS
Description: The 94 additional genes, together with positive control (DNA encoding SEQ ID No. 262) and negative control, were transformed, expressed, lysed and reacted in the same manner as described above for Experiment 4-1, except the reaction was incubated at 30 degrees C. for 18 hours.
Samples were analysed by LCMS/MS according to the procedure in Experiment 4-1.

| Molecule | Experiment 5-1 % conv [%] |
| --- | --- |
| B1 | 9.2 |
| B2 | 7.8 |
| B3 | 12.3 |
| B4 | 12.6 |
| B5 | 9.8 |
| B6 | 9.3 |
